From patent US20060051737A1 (ROCKEFELLER UNIVERSITY, published 2006)

target: T1, human Rif1 (human, UniProt Q5UIP0 1-2472); assay: co-immunoprecipitation
T1 construct: Endogenous protein in extracts or fixed cells of human cell lines (e.g. HeLa); It is seen as a >250 kDa polypeptide; the predicted protein has 2472 amino acids and 274 kDa; also called hRif1
T1 sequence (Q5UIP0 other isoform, or with tags, fused parts or gaps limits assumed): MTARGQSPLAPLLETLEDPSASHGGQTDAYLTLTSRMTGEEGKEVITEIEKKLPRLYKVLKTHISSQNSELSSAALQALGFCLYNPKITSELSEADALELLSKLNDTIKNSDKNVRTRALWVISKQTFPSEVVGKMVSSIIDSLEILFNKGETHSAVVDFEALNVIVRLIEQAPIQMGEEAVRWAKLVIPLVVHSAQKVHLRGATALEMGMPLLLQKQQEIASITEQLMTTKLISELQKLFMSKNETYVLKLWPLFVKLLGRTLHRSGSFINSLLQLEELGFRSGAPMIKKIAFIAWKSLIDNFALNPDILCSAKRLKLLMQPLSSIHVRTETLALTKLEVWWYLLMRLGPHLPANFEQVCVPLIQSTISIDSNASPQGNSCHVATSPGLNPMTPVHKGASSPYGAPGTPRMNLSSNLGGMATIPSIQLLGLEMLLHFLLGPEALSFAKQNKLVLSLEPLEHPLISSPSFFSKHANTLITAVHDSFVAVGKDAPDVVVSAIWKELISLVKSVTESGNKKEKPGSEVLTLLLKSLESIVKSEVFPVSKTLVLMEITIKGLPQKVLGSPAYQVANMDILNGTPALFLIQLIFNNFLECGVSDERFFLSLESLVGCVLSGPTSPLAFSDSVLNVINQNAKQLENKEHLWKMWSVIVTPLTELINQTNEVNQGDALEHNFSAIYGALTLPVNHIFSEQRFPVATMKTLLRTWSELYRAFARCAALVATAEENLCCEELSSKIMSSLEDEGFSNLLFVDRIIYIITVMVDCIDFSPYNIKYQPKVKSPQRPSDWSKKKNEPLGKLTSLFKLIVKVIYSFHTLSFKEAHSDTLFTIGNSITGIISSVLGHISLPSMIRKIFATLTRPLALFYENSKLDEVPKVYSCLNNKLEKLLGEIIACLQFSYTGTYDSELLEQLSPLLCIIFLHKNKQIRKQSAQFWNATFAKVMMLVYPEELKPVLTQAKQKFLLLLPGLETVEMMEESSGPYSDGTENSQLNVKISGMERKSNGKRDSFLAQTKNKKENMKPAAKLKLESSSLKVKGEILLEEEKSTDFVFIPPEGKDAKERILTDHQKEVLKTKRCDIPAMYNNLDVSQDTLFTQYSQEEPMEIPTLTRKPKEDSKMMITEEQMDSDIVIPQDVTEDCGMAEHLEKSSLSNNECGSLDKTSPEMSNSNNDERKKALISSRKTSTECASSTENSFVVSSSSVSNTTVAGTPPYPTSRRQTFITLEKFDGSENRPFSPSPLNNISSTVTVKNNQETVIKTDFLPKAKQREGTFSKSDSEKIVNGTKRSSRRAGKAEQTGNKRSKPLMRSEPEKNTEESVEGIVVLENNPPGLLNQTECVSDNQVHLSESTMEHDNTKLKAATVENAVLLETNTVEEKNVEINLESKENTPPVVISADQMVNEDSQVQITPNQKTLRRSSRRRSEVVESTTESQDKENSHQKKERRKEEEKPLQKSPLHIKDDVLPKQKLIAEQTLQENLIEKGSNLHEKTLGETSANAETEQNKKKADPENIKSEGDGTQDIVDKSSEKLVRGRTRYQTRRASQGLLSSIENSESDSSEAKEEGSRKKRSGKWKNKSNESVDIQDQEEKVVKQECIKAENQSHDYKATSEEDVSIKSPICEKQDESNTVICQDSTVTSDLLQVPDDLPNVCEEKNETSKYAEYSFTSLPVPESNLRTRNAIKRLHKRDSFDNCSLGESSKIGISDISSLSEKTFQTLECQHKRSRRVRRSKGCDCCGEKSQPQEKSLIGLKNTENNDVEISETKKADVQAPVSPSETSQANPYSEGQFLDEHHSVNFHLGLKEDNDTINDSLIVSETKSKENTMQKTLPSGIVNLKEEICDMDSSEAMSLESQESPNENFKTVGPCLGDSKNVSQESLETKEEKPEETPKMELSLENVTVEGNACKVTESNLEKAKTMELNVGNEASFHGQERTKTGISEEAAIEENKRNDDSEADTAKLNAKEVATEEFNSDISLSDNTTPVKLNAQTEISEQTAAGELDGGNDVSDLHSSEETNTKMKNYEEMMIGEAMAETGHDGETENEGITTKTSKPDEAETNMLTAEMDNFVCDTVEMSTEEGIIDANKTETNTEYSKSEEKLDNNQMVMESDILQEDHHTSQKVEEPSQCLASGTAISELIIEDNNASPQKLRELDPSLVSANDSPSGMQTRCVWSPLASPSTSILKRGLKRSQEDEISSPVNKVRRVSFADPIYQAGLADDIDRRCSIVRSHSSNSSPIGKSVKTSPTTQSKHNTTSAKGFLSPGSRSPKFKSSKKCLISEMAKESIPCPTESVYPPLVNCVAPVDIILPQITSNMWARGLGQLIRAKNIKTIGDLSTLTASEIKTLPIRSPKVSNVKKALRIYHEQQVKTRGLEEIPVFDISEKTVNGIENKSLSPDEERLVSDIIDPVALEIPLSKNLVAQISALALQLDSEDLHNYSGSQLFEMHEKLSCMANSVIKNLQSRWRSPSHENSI

| binding result | Binder |
| --- | --- |
| no binding | Rap1 (other, human, UniProt Q9NYB0 2-399, looked up, also called human Rap1) AEAMDLGKDPNGPTHSSTLFVRDDGSSMSFYVRPSPAKRRLSTLILHGGGTVCRVQEPGAVLLAQPGEALAEASGDFISTQYILDCVERNERLELEAYRLGPASAADTGSEAKPGALAEGAAEPEPQRHAGRIAFTDADDVAILTYVKENARSPSSVTGNALWKAMEKSSLTQHSWQSLKDRYLKHLRGQEHKYLLGDAPVSPSSQKLKRKAEEDPEAADSGEPQNKRTPDLPEEEYVKEEIQENEEAVKKMLVEATREFEEVVVDESPPDFEIHITMCDDDPPTPEEDSETQPDEEEEEEEEKVSQPEVGAAIKIIRQLMEKFNLDLSTVTQAFLKNSGELEATSAFLASGQRADGYPIWSRQDDIDLQKDDEDTREALVKKFGAQNVARRIEFRKK |
| no binding | TRF2 (other, human, UniProt Q15554 1-542, looked up) MAAGAGTAGPASGPGVVRDPAASQPRKRPGREGGEGARRSDTMAGGGGSSDGSGRAAGRRASRSSGRARRGRHEPGLGGPAERGAGEARLEEAVNRWVLKFYFHEALRAFRGSRYGDFRQIRDIMQALLVRPLGKEHTVSRLLRVMQCLSRIEEGENLDCSFDMEAELTPLESAINVLEMIKTEFTLTEAVVESSRKLVKEAAVIICIKNKEFEKASKILKKHMSKDPTTQKLRNDLLNIIREKNLAHPVIQNFSYETFQQKMLRFLESHLDDAEPYLLTMAKKALKSESAASSTGKEDKQPAPGPVEKPPREPARQLRNPPTTIGMMTLKAAFKTLSGAQDSEAAFAKLDQKDLVLPTQALPASPALKNKRPRKDENESSAPADGEGGSELQPKNKRMTISRLVLEEDSQSTEPSAGLNSSQEAASAPPSKPTVLNQPLPGEKNPKVPKGKWNSSNGVEEKETWVEEDELFQVQAAPDEDSTTNITKKQKWTVEESEWVKAGVQKYGEGNWAAISKNYPFVNRTAVMIKDRWRTMKRLGMN |
| no binding | TRF1 (other, human, UniProt P54274 2-439, looked up) AEDVSSAAPSPRGCADGRDADPTEEQMAETERNDEEQFECQELLECQVQVGAPEEEEEEEEDAGLVAEAEAVAAGWMLDFLCLSLCRAFRDGRSEDFRRTRNSAEAIIHGLSSLTACQLRTIYICQFLTRIAAGKTLDAQFENDERITPLESALMIWGSIEKEHDKLHEEIQNLIKIQAIAVCMENGNFKEAEEVFERIFGDPNSHMPFKSKLLMIISQKDTFHSFFQHFSYNHMMEKIKSYVNYVLSEKSSTFLMKAAAKVVESKRTRTITSQDKPSGNDVEMETEANLDTRKSVSDKQSAVTESSEGTVSLLRSHKNLFLSKLQHGTQQQDLNKKERRVGTPQSTKKKKESRRATESRIPVSKSQPVTPEKHRARKRQAWLWEEDKNLRSGVRKYGEGNWSKILLHYKFNNRTSVMLKDRWRTMKKLKLISSDSED |
